For experiment [1], the target named is T1, CD20 on Raji cells (CD20+/CD3- cells) (human, UniProt P11836 1-297).
T1 construct: whole, on cells; Raji, Ramos and NAMALWA in the killing assays; also called Ramos; NAMALWA
T1 sequence (looked up): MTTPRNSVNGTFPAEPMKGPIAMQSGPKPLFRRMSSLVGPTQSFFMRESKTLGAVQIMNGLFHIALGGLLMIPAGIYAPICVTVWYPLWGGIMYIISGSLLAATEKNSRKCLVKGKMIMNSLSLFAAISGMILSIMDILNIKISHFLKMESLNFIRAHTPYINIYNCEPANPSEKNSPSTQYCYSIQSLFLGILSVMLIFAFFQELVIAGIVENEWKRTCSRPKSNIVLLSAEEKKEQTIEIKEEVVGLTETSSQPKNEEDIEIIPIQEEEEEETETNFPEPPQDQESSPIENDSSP
Kind of experiment: flow cytometry on Raji cells (CD20+/CD3-). Here is the method: (§1) After incubation, the cells were washed twice with cold 1% BSA/1×PBS. […] After being washed twice, the geometric mean fluorescence (MFI) of the stained cells was measured using a FACS Canto II […] (BD Biosciences). Wells containing no antibody or containing only fluorescent secondary antibody were used to establish background fluorescence. The EC50 values for cell binding were determined using GraphPad Prism 5 software (GraphPad Software, La Jolla, Calif.); each value was calculated by four-parameter non-linear regression analysis.

Experiment [2] deals with T2, CD3 on Jurkat cells (CD3+/CD20- cells) (human, UniProt P07766 23-207; P04234 22-171; P09693 23-182).
T2 construct: whole, on cells; also called Jurkat 2B8
The experiment is described as follows: flow cytometry on Jurkat 2B8 cells (CD3+/CD20-). As to the method: as §1

T2 sequence (P07766 23-207, chain 1 of 3): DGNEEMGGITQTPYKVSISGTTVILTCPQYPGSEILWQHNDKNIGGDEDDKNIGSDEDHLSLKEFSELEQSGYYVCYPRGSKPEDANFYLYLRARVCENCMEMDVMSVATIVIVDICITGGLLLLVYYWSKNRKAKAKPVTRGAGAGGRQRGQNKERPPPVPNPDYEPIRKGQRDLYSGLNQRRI
T2 sequence (P04234 22-171, chain 2 of 3): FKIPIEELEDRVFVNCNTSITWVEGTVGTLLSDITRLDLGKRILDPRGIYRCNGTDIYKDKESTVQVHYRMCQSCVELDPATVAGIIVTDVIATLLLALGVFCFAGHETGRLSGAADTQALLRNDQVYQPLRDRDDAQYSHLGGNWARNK
T2 sequence (P09693 23-182, chain 3 of 3): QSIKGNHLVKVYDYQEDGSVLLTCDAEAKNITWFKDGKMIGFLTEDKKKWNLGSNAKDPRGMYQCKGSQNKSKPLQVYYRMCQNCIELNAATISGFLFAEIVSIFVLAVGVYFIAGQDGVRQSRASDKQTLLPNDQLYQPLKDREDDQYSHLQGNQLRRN

B1: W3278-U3T2.F18R-1.uIgG4.SP (bispecific antibody)
heavy 1: EVQLVESGGGLVQPGRSLRLSCAASGFTFNDYAMHWVRQAPGKGLEWVSTISWNSGSIGYADSVKGRFTISRDNAKKSLYLQMNSLRAEDTALYYCAKDIQYGNYYYGMDVWGQGTTVTVSSASTKGPSVFPLAPCSRSTSESTAALGCLVKDYFPEPVTVSWNSGALTSGVHTFPAVLQSSGLYSLSSVVTVPSSSLGTKTYTCNVDHKPSNTKVDKRVGGGGSGGGGSQVQLVQSGAEVKKPGSSVKVSCKASGYSFTTYYIHWVRQAPGQGLEWMGWIFPGNDNIKYSEKFKGRVTITADKSTSTAYMELSSLRSEDTAVYYCAIDSVSIYYFDYWGQGTLVTVLEDLKNVFPPEVAVFEPSEAEISHTQKATLVCLATGFYPDHVELSWWVNGKEVHSGVCTDPQPLKEQPALQDSRYALSSRLRVSATFWQNPRNHFRCQVQFYGLSENDEWTQDRAKPVTQIVSAEAWGRYGPPCPPCPAPEFLGGPSVFLFPPKPKDTLMISRTPEVTCVVVDVSQEDPEVQFNWYVDGVEVHNAKTKPREEQFNSTYRVVSVLTVLHQDWLNGKEYKCKVSNKGLPSSIEKTISKAKGQPREPQVYTLPPCQEEMTKNQVSLWCLVKGFYPSDIAVEWESNGQPENNYKTTPPVLDSDGSFFLYSRLTVDKSRWQEGNVFSCSVMHEALHNHYTQKSLSLSLG
heavy 2: EVQLVESGGGLVQPGRSLRLSCAASGFTFNDYAMHWVRQAPGKGLEWVSTISWNSGSIGYADSVKGRFTISRDNAKKSLYLQMNSLRAEDTALYYCAKDIQYGNYYYGMDVWGQGTTVTVSSASTKGPSVFPLAPCSRSTSESTAALGCLVKDYFPEPVTVSWNSGALTSGVHTFPAVLQSSGLYSLSSVVTVPSSSLGTKTYTCNVDHKPSNTKVDKRVESKYGPPCPPCPAPEFLGGPSVFLFPPKPKDTLMISRTPEVTCVVVDVSQEDPEVQFNWYVDGVEVHNAKTKPREEQFNSTYRVVSVLTVLHQDWLNGKEYKCKVSNKGLPSSIEKTISKAKGQPREPQVCTLPPSQEEMTKNQVSLSCAVKGFYPSDIAVEWESNGQPENNYKTTPPVLDSDGSFFLVSRLTVDKSRWQEGNVFSCSVMHEALHNHYTQKSLSLSLG
light 1: not shown
light 2: DIVMTQSPDSLAVSLGERATINCKSSQSLLNSRTRKNYLAWYQQKPGQPPKLLIYWASTRKSGVPDRFSGSGSGTDFTLTISSLQAEDVAVYYCTQSFILRTFGGGTKVEIKPDIQNPDPAVYQLRDSKSSDKSVCLFTDFDSQTQVSQSKDSDVYITDKCVLDMRSMDFKSNSAVAWSQKSDFACANAFQNSIIPEDTFFPSPESS
notes: Human IgG4 S228P, knobs-into-holes; also called W3278 BsAb; WBP3278 BsAb
For B1, in experiment [1], it took 0.0013 µM to reach a half-maximal effect (EC50) and the “TOP MFI” value is 55400 MFI. In experiment [2], the EC50 was determined as 0.0266 µM and the “TOP MFI” value came out at 536 MFI.

B2: W3278-T3U2.F17R-1.uIgG4.SP (bispecific antibody)
heavy 1: QVQLVQSGAEVKKPGSSVKVSCKASGFAFTDYYIHWVRQAPGQGLEWMGWISPGNVNTKYNENFKGRVTITADKSTSTAYMELSSLRSEDTAVYYCARDGYSLYYFDYWGQGTLVTVLEDLKNVFPPEVAVFEPSEAEISHTQKATLVCLATGFYPDHVELSWWVNGKEVHSGVCTDPQPLKEQPALQDSRYALSSRLRVSATFWQNPRNHFRCQVQFYGLSENDEWTQDRAKPVTQIVSAEAWGRGGGGSGGGGSQVQLQQPGAELVKPGASVKMSCKASGYTFTSYNMHWVKQTPGRGLEWIGAIYPGNGDTSYNQKFKGKATLTADKSSSTAYMQLSSLTSEDSAVYYCARSTYYGGDWYFNVWGAGTTVTVSAASTKGPSVFPLAPCSRSTSESTAALGCLVKDYFPEPVTVSWNSGALTSGVHTFPAVLQSSGLYSLSSVVTVPSSSLGTKTYTCNVDHKPSNTKVDKRVESKYGPPCPPCPAPEFLGGPSVFLFPPKPKDTLMISRTPEVTCVVVDVSQEDPEVQFNWYVDGVEVHNAKTKPREEQFNSTYRVVSVLTVLHQDWLNGKEYKCKVSNKGLPSSIEKTISKAKGQPREPQVYTLPPCQEEMTKNQVSLWCLVKGFYPSDIAVEWESNGQPENNYKTTPPVLDSDGSFFLYSRLTVDKSRWQEGNVFSCSVMHEALHNHYTQKSLSLSLG
heavy 2: QVQLQQPGAELVKPGASVKMSCKASGYTFTSYNMHWVKQTPGRGLEWIGAIYPGNGDTSYNQKFKGKATLTADKSSSTAYMQLSSLTSEDSAVYYCARSTYYGGDWYFNVWGAGTTVTVSAASTKGPSVFPLAPCSRSTSESTAALGCLVKDYFPEPVTVSWNSGALTSGVHTFPAVLQSSGLYSLSSVVTVPSSSLGTKTYTCNVDHKPSNTKVDKRVESKYGPPCPPCPAPEFLGGPSVFLFPPKPKDTLMISRTPEVTCVVVDVSQEDPEVQFNWYVDGVEVHNAKTKPREEQFNSTYRVVSVLTVLHQDWLNGKEYKCKVSNKGLPSSIEKTISKAKGQPREPQVCTLPPSQEEMTKNQVSLSCAVKGFYPSDIAVEWESNGQPENNYKTTPPVLDSDGSFFLVSRLTVDKSRWQEGNVFSCSVMHEALHNHYTQKSLSLSLG
light 1: DIVMTQSPDSLAVSLGERATINCKSSQSLLNSRTRKNYLAWYQQKPGQPPKLLIYWASTRQSGVPDRFSGSGSGTDFTLTISSLQAEDVAVYYCTQSHTLRTFGGGTKVEIKPDIQNPDPAVYQLRDSKSSDKSVCLFTDFDSQTQVSQSKDSDVYITDKCVLDMRSMDFKSNSAVAWSQKSDFACANAFQNSIIPEDTFFPSPESS
light 2: QIVLSQSPAILSASPGEKVTMTCRASSSVSYIHWFQQKPGSSPKPWIYATSNLASGVPVRFSGSGSGTSYSLTISRVEAEDAATYYCQQWTSNPPTFGGGTKLEIKRTVAAPSVFIFPPSDEQLKSGTASVVCLLNNFYPREAKVQWKVDNALQSGNSQESVTEQDSKDSTYSLSSTLTLSKADYEKHKVYACEVTHQGLSSPVTKSFNRGEC
notes: also called W3278 BsAb; WBP3278 BsAb
Consider B2, for which the concentration for a half-maximal effect (EC50) was 0.0853 µM in experiment [1] and 0.0173 µM in experiment [2]. For the same molecule, the entries for the “TOP MFI” value in experiment [1] and in experiment [2] were 64900 MFI and 7360 MFI, respectively.

B3: Anti-CD20. IgG4 (U2) (antibody, V domains shown)
VH: QVQLQQPGAELVKPGASVKMSCKASGYTFTSYNMHWVKQTPGRGLEWIGAIYPGNGDTSYNQKFKGKATLTADKSSSTAYMQLSSLTSEDSAVYYCARSTYYGGDWYFNVWGAGTTVTVSA
VL: QIVLSQSPAILSASPGEKVTMTCRASSSVSYIHWFQQKPGSSPKPWIYATSNLASGVPVRFSGSGSGTSYSLTISRVEAEDAATYYCQQWTSNPPTFGGGTKLEIK
notes: Tested as IgG4; also called parental anti-CD20 antibody U2
As for B3, in experiment [1], the concentration giving a half-maximal response (EC50) worked out at 0.0114 µM and the “TOP MFI” value worked out at 53500 MFI.

B4: Anti-CD3 Fab (T2) (Fab, V domains shown)
VH: QVQLVQSGAEVKKPGSSVKVSCKASGYSFTTYYIHWVRQAPGQGLEWMGWIFPGNDNIKYSEKFKGRVTITADKSTSTAYMELSSLRSEDTAVYYCAIDSVSIYYFDYWGQGTLVTVSS
VL: DIVMTQSPDSLAVSLGERATINCKSSQSLLNSRTRKNYLAWYQQKPGQPPKLLIYWASTRKSGVPDRFSGSGSGTDFTLTISSLQAEDVAVYYCTQSFILRTFGGGTKVEIK
notes: Parental antibody tested as a Fab; The variable domains are tied to it through the clone naming: T2 is the anti-CD3 portion of W3278-T2U3 and W3278-U3T2; also called parental anti-CD3 antibody T2
B4: in experiment [2], the response was half-maximal at 0.033 µM (EC50) and the “TOP MFI” value was 3210 MFI.

B5: Anti-CD3 Fab (T3) (Fab, V domains shown)
VH: QVQLVQSGAEVKKPGSSVKVSCKASGFAFTDYYIHWVRQAPGQGLEWMGWISPGNVNTKYNENFKGRVTITADKSTSTAYMELSSLRSEDTAVYYCARDGYSLYYFDYWGQGTLVTVSS
VL: DIVMTQSPDSLAVSLGERATINCKSSQSLLNSRTRKNYLAWYQQKPGQPPKLLIYWASTRQSGVPDRFSGSGSGTDFTLTISSLQAEDVAVYYCTQSHTLRTFGGGTKVEIK
notes: Parental antibody tested as a Fab; The variable domains are tied to it through the clone naming: T3 is the anti-CD3 portion of W3278-T3U2 and W3278-U2T3; also called parental anti-CD3 antibody T3
Turning to B5, in experiment [2], the 50% effective concentration (EC50) worked out at 0.0437 µM and the “TOP MFI” value stood at 3800 MFI.

B6: W3278-T2U3.E17R-1.uIgG4.SP (bispecific antibody)
heavy 1: QVQLVQSGAEVKKPGSSVKVSCKASGYSFTTYYIHWVRQAPGQGLEWMGWIFPGNDNIKYSEKFKGRVTITADKSTSTAYMELSSLRSEDTAVYYCAIDSVSIYYFDYWGQGTLVTVSSASTKGPSVFPLAPCSRSTSESTAALGCLVKDYFPEPVTVSWNSGALTSGVHTFPAVLQSSGLYSLSSVVTVPSSSLGTKTYTCNVDHKPSNTKVDKRVESKYGPPCPPCPAPEFLGGPSVFLFPPKPKDTLMISRTPEVTCVVVDVSQEDPEVQFNWYVDGVEVHNAKTKPREEQFNSTYRVVSVLTVLHQDWLNGKEYKCKVSNKGLPSSIEKTISKAKGQPREPQVYTLPPCQEEMTKNQVSLWCLVKGFYPSDIAVEWESNGQPENNYKTTPPVLDSDGSFFLYSRLTVDKSRWQEGNVFSCSVMHEALHNHYTQKSLSLSLG
heavy 2: EVQLVESGGGLVQPGRSLRLSCAASGFTFNDYAMHWVRQAPGKGLEWVSTISWNSGSIGYADSVKGRFTISRDNAKKSLYLQMNSLRAEDTALYYCAKDIQYGNYYYGMDVWGQGTTVTVLEDLKNVFPPEVAVFEPSEAEISHTQKATLVCLATGFYPDHVELSWWVNGKEVHSGVCTDPQPLKEQPALQDSRYALSSRLRVSATFWQNPRNHFRCQVQFYGLSENDEWTQDRAKPVTQIVSAEAWGRYGPPCPPCPAPEFLGGPSVFLFPPKPKDTLMISRTPEVTCVVVDVSQEDPEVQFNWYVDGVEVHNAKTKPREEQFNSTYRVVSVLTVLHQDWLNGKEYKCKVSNKGLPSSIEKTISKAKGQPREPQVCTLPPSQEEMTKNQVSLSCAVKGFYPSDIAVEWESNGQPENNYKTTPPVLDSDGSFFLVSRLTVDKSRWQEGNVFSCSVMHEALHNHYTQKSLSLSLG
light 1: not shown
light 2: EIVLTQSPATLSLSPGERATLSCRASQSVSSYLAWYQQKPGQAPRLLIYDASNRATGIPARFSGSGSGTDFTLTISSLEPEDFAVYYCQQRSNWPITFGQGTRLEIKPDIQNPDPAVYQLRDSKSSDKSVCLFTDFDSQTQVSQSKDSDVYITDKCVLDMRSMDFKSNSAVAWSQKSDFACANAFQNSIIPEDTFFPSPESS
notes: Human IgG4 with S228P, knobs-into-holes; WuXiBody format, in which one arm carries TCR constant domains; also called W3278 BsAb; WBP3278 BsAb
With B6, in experiment [1], the concentration giving a half-maximal response (EC50) was determined as 0.0132 µM and the “TOP MFI” value was 68500 MFI. In experiment [2], the EC50 is 0.129 µM and the “TOP MFI” value is 3880 MFI.

The values above are taken from patent US20230279138A1 (CHIA TAI TIANQING PHARMACEUTICAL GROUP, published 2023).
